Source: patent USRE38313

Tests used:
[1] = target: human MHC Class II molecules expressed on cells (human); test: flow cytometry on Daudi cells, GAH-FITC detection, no preincubation
[2] = target: human MHC Class II molecules expressed on cells (human); test: flow cytometry on Daudi cells preincubated with the competitor soluble CHO/LAG-3D1D2, GAH-FITC detection
[3] = target: human MHC Class II molecules expressed on cells (human); test: cell-based or functional assay
[4] = target: human MHC Class II molecules expressed on cells (human); test: competition by flow cytometry on Daudi cells; soluble CHO/LAG-3D1D2 first, then monomeric LAG-3D1D2Ig
[5] = target: human MHC Class II molecules expressed on cells (human); test: competition by flow cytometry on Daudi cells; soluble CHO/LAG-3D1D2 first, then dimeric LAG-3D1D4Ig

Substance	Mean Fluorescence [1]	Mean Fluorescence [2]	inhibition of the proliferation of clone T154 preincubated with cross-linked LAG-3Ig [3] [%]	percent inhibition of the binding of monomeric LAG-3D1D2Ig [4] [%]	percent inhibition of the binding of dimeric LAG-3D1D4Ig [5] [%]
LAG-3 D1-D4 Ig (from UniProt P01857 99-330) (Fc fusion)	20.8	8.5	> 50		
LAG-3 D1D2 Ig (from UniProt P01857 99-330) (Fc fusion)	62.5				
soluble LAG-3 D1D2 fragment produced by CHO cells (receptor)				27	58
